Assay results from patent publication US12351834B2, “Compositions and methods for the treatment of ornithine transcarbamylase deficiency” (Arcturus Therapeutics, Inc., priority 2020, dated 2025).

How the values were obtained:
Assay type in all cases: in vivo, mouse
Spf/ash mice [1] = test: PK/PD analysis of human OTC expression and urinary orotate in Spf/ash mice; conditions: 1 mg/kg and 3 mg/kg IV, 96 hours post dose
Protocol: Spf/ash mice received an IV injection with either PBS or certain lipid-formulated OTC-mRNAs from Table 5 at 1 mg/kg and 3 mg/kg using two different uridine chemistries (N1MPU and 5MeOU). WT mice were used as internal controls. Human-specific OTC levels were measured by MRM, and urinary orotate was determined in each sample and normalized to creatinine.

Spf/ash mice [2] = test: Urinary orotate levels in Spf/ash mice; conditions: 3 mg/kg IV, lipid-formulated
Protocol: Spf/ash mice received an IV injection with either PBS or lipid-formulated OTC-mRNA construct 1799.7 (5MeOU chemistry) at three different doses: 0.3 mg/kg, 1 mg/kg and 3 mg/kg. Urinary orotate levels were determined in untreated wild-type (WT) and both untreated and treated Spf/ash mice. A urinary orotate time course was performed in Spf/ash and WT mice, and urinary orotate levels were measured at each timepoint. The results can be seen in FIG. 12. Urinary orotate was normalized to creatinine, which is represented in the graph on the y-axis throughout the time course and served as a proof-of-concept of functional restoration of OTC activity post-injection.
Spf/ash mice received an IV injection with either PBS or lipid-formulated (as described in Example 1) OTC-mRNA at 1 mg/kg and 3 mg/kg. WT mice were included as an internal control. Urinary orotate levels were measured at 0, 1, 3, 7 and 14 days, and levels were normalized to creatinine (FIG. 16).

Spf/ash mice [3] = test: Survival of Spf/ash mice on a high protein diet; conditions: 0.3, 1 and 3 mg/kg IV on days 0, 7, 14, 21, 28
Protocol: Spf/ash mice received an IV injection with either PBS or lipid-formulated OTC-mRNA (1799.7) at three doses: 0.3 mg/kg, 1 mg/kg and 3 mg/kg. Mice were fed a high protein diet from day 0 to the end of the study. Treated animals were injected intravenously on days 0, 7, 14, 21 and 28 (indicated by the arrows in the chart in FIG. 17). Survival rates were determined every week. The plot in FIG. 17 summarizes the entire study timeline and the survival rates observed for the different groups.
The pharmacology of the OTC mRNA lipid formulations was investigated in studies that elucidated their efficacy and potential mechanism of action in a series of studies in the hemizygous male Spf/ash mouse model. […] The hypomorphic Spf/ash mouse shares similar biochemical features with OTCD patients, including elevated concentrations of urinary orotic acid (orotate), blood glutamine, and decreased concentrations of blood citrulline and arginine. The hemizygous male Spf/ash mice used in the pharmacology studies were derived by crossing B6EiC3Sn a/A-Otcspfash/J Het mice x B6EiC3SnF1/J mice as homozygous mice are not viable. […]
To study the effect of different ionizable cationic lipids on survival rate, Spf/ash mice received an IV injection with either PBS or one of three different lipid-formulated OTC-mRNA (1799.7) compositions. […] Survival rates were determined daily. […]

B1: 1799.7 (nucleic acid)
chain: ATGCTGTTCAACCTGCGCATCCTGCTGAACAACGCCGCCTTCCGCAACGGCCACAACTTCATGGTGCGCAACTTCCGCTGCGGCCAGCCCCTGCAGAACAAGGTGCAGCTGAAGGGCCGCGACCTGCTGACCCTGAAGAACTTCACCGGCGAGGAGATCAAGTACATGCTGTGGCTGAGCGCCGACCTGAAGTTCCGCATCAAGCAGAAGGGCGAGTACCTGCCCCTGCTGCAGGGCAAGAGCCTGGGCATGATCTTCGAGAAGCGCAGCACCCGCACCCGCCTGAGCACCGAGACAGGCTTCGCCCTGCTGGGCGGCCACCCCTGCTTCCTGACCACCCAGGACATCCACCTGGGCGTGAACGAGAGCCTGACCGACACCGCCCGCGTGCTGAGCAGCATGGCCGACGCCGTGCTGGCCCGCGTGTACAAGCAGAGCGACCTGGACACCCTGGCCAAGGAGGCCAGCATCCCCATCATCAACGGCCTGAGCGACCTGTACCACCCCATCCAGATCCTGGCCGACTACCTGACCCTGCAGGAGCACTACAGCAGCCTGAAGGGCCTGACCCTGAGCTGGATCGGCGACGGCAACAACATCCTGCACAGCATCATGATGAGCGCCGCCAAGTTCGGCATGCACCTGCAGGCCGCCACCCCCAAGGGCTACGAGCCCGACGCCAGCGTGACCAAGCTGGCCGAGCAGTACGCCAAGGAGAACGGCACCAAGCTGCTGCTGACCAACGACCCCCTGGAGGCCGCCCACGGCGGCAACGTGCTGATCACCGACACCTGGATCAGCATGGGCCAGGAGGAGGAGAAGAAGAAGCGCCTGCAGGCCTTCCAGGGCTACCAGGTGACCATGAAGACCGCCAAGGTGGCCGCCAGCGACTGGACCTTCCTGCACTGCCTGCCCCGCAAGCCCGAGGAGGTGGACGACGAGGTGTTCTACAGCCCCCGCAGCCTGGTGTTCCCCGAGGCCGAGAACCGCAAGTGGACCATCATGGCCGTGATGGTGAGCCTGCTGACCGACTACAGCCCCCAGCTGCAGAAGCCCAAGTTCTGA
modifications: 100% 5-methoxyuridine; lipid formulation
- PK/PD correlation between hOTC protein expression and reduction of urinary orotate (Spf/ash mice [1]): high PK/PD correlation
- urinary orotate levels in treated Spf/ash mice vs WT mice (Spf/ash mice [2]): comparable to urinary orotate levels in WT mice
- duration of sustainable reduction of urinary orotate levels (Spf/ash mice [2]; normalized to creatinine): up to 14 days
- dose dependence of survival rate (Spf/ash mice [3]): dose-dependent
- survival during hyperammonemic crisis vs PBS (Spf/ash mice [3]): greater survival
